Experimental data published in patent US7645449B2, “Sensitizing cells for apoptosis by selectively blocking cytokines” (priority 2003, dated 2010).

Key:
[1] = system: RT112 bladder carcinoma cells; experiment: MTS viability of RT112 cells: chemotherapy- and anti-CD95-induced apoptosis; assay type: cell-based, human
Excerpt: Anticancer treatment using cytotoxic drugs mediates cell death by activating the intracellular apoptotic program. To determine whether IL-4 was able to inhibit apoptosis induced by chemotherapeutic drugs, bladder tumor cells (RT112) were pretreated for two days with different concentrations of IL-4 and subsequently exposed to camptothecin or etoposide.
Human LNCAP prostate cancer cell line and human MDA-MB-231 breast cancer cell line were obtained from the American Type Culture Collection (ATCC, Manassas, Va.). Human RT112 bladder carcinoma cell line was kindly provided by Dr. M. Cippitelli (Regina Elena Cancer Institute, Rome, Italy). Cells were grown in RPMI 1640 (Life Technologies Inc., Grand Island, N.Y.) containing 10% heat inactivated fetal bovine serum supplemented with L-Glutamine 2 mM and 100 units/ml Penicillin-Streptomycin. Cells were kept in 5% CO2 atmosphere and routinely passaged when 80-85% confluent. […] Camptothecin, cisplatin, daunorubicine, etoposide and vincristine were purchased from Sigma-Aldrich Inc. (Sain Louis, Mo.) and resuspended in DMSO (cisplatin, camptothecin and etoposide) or in H2O (daunorubicine and vincristine). Anti-CD95 agonistic antibody (clone CH11) was purchased from Upstate Biotechnology (Lake Placid, N.Y.). Monoclonal antibody anti-Bcl-XL (H5, mouse) was from Santa Cruz (Santa Cruz, Calif.), antibody anti-cFlip/FLAME-1 (NF6, mouse) was kindly provided by Dr. P.H. Krammer (German Cancer Reseach Center, Heidelberg, Germany). Antibody anti β-actin (goat) was purchased from Oncogene (Boston, Mass.):
Cell viability was determined using the CellTiter 96® AQueous One Solution Cell Proliferation Assay (Promega, Madison, Wis.), according to the manufacturer's instructions. The assay is based on reduction of 3-(4,5-dimethylthiazol-2-yl)-5-(3-carboxymethoxyphenyl)-2-(4-sulfophenyl)-2H-tetrazolium, inner salt (MTS) to a colored formazan product that is measured spectrophotometrically. Cells were seeded in 96-well tissue culture plates and incubated at 37° C. in a 5% CO2 incubator overnight. […] After two days cells were treated for 10 hours with chemotherapeutic drugs or anti-CD95, then 20 μl of MTS were added to each well. After 3 hours of incubation at 37° C. with the MTS reagent, the plates were read on a Multilabel Counter (Victor2, Wallac, Perkin-Ehmer Inc., Norwalk, Conn.) and dye absorbance was measured at 490 nm.
The percentage of apoptotic cells was derived from the percentage of viable cells that was directly calculated from the values of the MTS assay. The percentage of protection from apoptosis was determined as: % protection=100%−X
X was calculated with the formule: (C1−C2):100=(S1−S2):X where:
C1 is the viability of untreated control cells, C2 is the viability of control cells treated with the apoptotic stimulus, S1 and S2 are the viability of cells preincubated with cytoldnes or transduced with anti-apoptotic genes, untreated (S1) or treated (S2) with the apoptotic stimuli.
(A) Percentage of viable RT112 bladder carcinoma cells pre-treated for two days with increasing doses of IL-4 (5, 10, 20, 50 and 100 ng/ml) which were maintained also during incubation with chemotherapeutic drugs and exposed to 50 ng/ml camptothecin of 7 μM etoposide. […] Cell viability was determined after 24 hours using the MTS assay as described in Materials and Methods and the percentage of protection from cell death was calculated as described in Materials and Methods. The results shown are the mean ±s.d. of four independent experiments.
When the cytokine is removed by washing the percentage of protection is downmodulated.
(E) IL-4 prevents anti CD95-induced apoptosis. […] Successively, cells were incubated with 30 ng/ml anti-CD95 agonistic antibody in standard medium, Control cells (−) were stimulated with anti-CD95 in the absence of cytokine pre-treatment. The results shown are the mean ±s.d. of four independent experiments.

[2] = system: primary breast carcinoma cells; experiment: Bcl-XL expression and chemosensitivity of primary breast carcinoma cells cultivated with or without IL-4; assay type: cell-based, human; settings: 6 days of in vitro culture in the presence of IL-4
Excerpt: To confirm that IL-4-induced upregulation of Bcl-XL is able to protect epithelial breast cells from apoptosis, freshly isolated normal breast epithelial cells were exposed to IL-4 and analyzed Bcl-XL expression and sensitivity to a panel of chemotherapeutic drugs commonly used to treat breast cancer. […] To confirm that in vivo exposure to IL-4 is responsible for high Bcl-XL expression and resistance to chemotherapy in breast cancer, Bcl-XL expression and sensitivity to apoptosis of primary breast carcinoma cells cultivated in the presence or absence of IL-4 was measured Freshly isolated breast cancer cells expressed high levels of Bcl-XL and were scarcely sensitive to chemotherapeutic drugs (FIGS. 14C and D). […] Thus, in vivo IL-4 production promotes the survival of breast cancer cells. […]
Cell pellets were washed twice with cold PBS and lysed on ice for 30 minutes with 1% NP40 lysis buffer (20 mM Tris-HCl pH 7.2, 200 mM NaCl, 1% NP40) in the presence of 1 mM phenylmethylsulphonyl fluoride (PMSF) and 2 μg/ml each of aprotinin, leupeptin and pepstatin. […] Lysate concentration was determined using the Bio-Rad protein assay (Bio-Rad Laboratories, Richmond, Calif.). […]

B1: IL-4: human recombinant IL-4 (protein, UniProt P05112 25-153, looked up)
Interleukin-4: HKCDITLQEIIKTLNSLTEQKTLCTELTVTDIFAASKNTTEKETFCRAATVLRQFYSHHEKDTRCLGATAQQFHRHKQLIRFLKRLDRNLWGLAGLNSCPVKEANQSTLENFLERLKTIMREKYSKCSS
[1]; 20 ng/ml IL-4 for two days, camptothecin or etoposide, viability after 24 hours
  protection from chemotherapy-induced apoptosis at 20 ng/ml: able to protect cells from chemotherapy-induced apoptosis
[1]; 7 μM etoposide, IL-4 maintained in the culture medium
  time course of protection from etoposide-induced cell death: protected from etoposide-induced cell death from day 2 to day 4
[1]; 24 hours of IL-4 pretreatment
  protective effect after shorter pretreatment: already consistent
[1]; IL-4 higher than 20 ng/ml (50, 100 ng/ml)
  protection from chemotherapy-induced apoptosis at higher concentrations: protective effect is maintained
[1]; pretreated two days with IL-4, then camptothecin or etoposide
  protection of RT112 cells from drug-induced death: significantly protected from drug-induced death
[1]; two days IL-4 pretreatment, 30 ng/ml anti-CD95 agonistic antibody
  CD95-induced apoptosis in bladder cancer cells: significantly inhibit CD95-induced apoptosis
[2]
  Bcl-XL levels in primary breast cancer cells: maintained high Bcl-XL levels
  sensitivity of primary breast cancer cells to chemotherapeutic drugs: low sensitivity to chemotherapeutic drugs
